Target: the molecule itself
Experiment: fluorescence correlation spectroscopy; 15 nM Atto 488-labelled TLL plus non-labelled TLL to 500 nM, no PMMA, broad-range buffer (succinic acid/NaH2PO4/glycine), pH 7 and pH 5; mean diffusion constant compared with the value predicted for the monomer (Hullrad)

B1: Thermomyces lanuginosus lipase (enzyme, UniProt O59952 23-291, looked up)
chain: EVSQDLFNQFNLFAQYSAAAYCGKNNDAPAGTNITCTGNACPEVEKADATFLYSFEDSGVGDVTGFLALDNTNKLIVLSFRGSRSIENWIGNLNFDLKEINDICSGCRGHDGFTSSWRSVADTLRQKVEDAVREHPDYRVVFTGHSLGGALATVAGADLRGNGYDIDVFSYGAPRVGNRAFAEFLTVQTGGTLYRITHTNDIVPRLPPREFGYSHSSPEYWIKSGTLVPVTRNDIVKIEGIDATGGNNQPNIPDIPAHLWYFGLIGTCL
modifications: Atto 488 coupled unspecifically to amines via NHS-ester (15 nM labelled protein, non-labelled enzyme added to 500 nM)
notes: Thermomyces lanuginosus lipase (TLL), commercial enzyme preparation; The PDB entries were used only for computational surface analysis; also called TLL; Atto 488-TLL; source: gift from ASA Spezialenzyme GmbH (Wolfenbüttel, Germany), desalted (HiTrap Desalting) before use
  stoichiometry N: 2
